Experiment: yeast display, Sf9 membrane polyspecificity reagent, FACS + sequencing; frameworks hold sequencing errors
Summary of the method: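 In a synthetic yeast display library (Saccharomyces cerevisiae BJ5465), nanobody expression was induced with galactose for 36–48 hours. FACS gates were set low and high (top ~1%) using anti-HA fluorescence for expression and streptavidin fluorescence for binding of the Sf9 membrane reagent. Each polyreactivity label is drawn from the gate of origin.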

Row | Sequence | polyreactivity (PSR sort gate)
1 | QVQLVESGGGLVQAGGSLRLSCAASGGTFSSNAMGWYRQAPGKERELVAAITWSGGSTYYADSVKGRFTISRDNAKNTVYLQMNSLKPEDTAVYYCNARNQWRTVGKYDYWGQGTQVTVSS | low polyreactivity
2 | QVQLVESGGGLVQAGGSLPLSSAASGRTFYPNAMGWYRQAPGNEREFVARISDSGGSTYYADSVKGRFTISRDNAKNTVYLQMNSLKPEDTAVYYCAADYGDPRVKEYDYWGQGTQVTVSS | low polyreactivity
3 | QVQLVESGGGLVQAGGSLRLSCAASGSTFYRYAMGWYRQAPGKEREFVAAISRSGGSTYYADSVKGRFTISRDNAKNTVYLQMNSLKPEDTAVYYCNKYYWYPYGRAHYYGYWGQGTQVTVSS | high polyreactivity
4 | QVQLVESGGGLVQAGGSLRLSCAASGNIFDEYTMGWYRQAPGKERELVAAINSGGSTDYADSVKGRFTISRDNAKNTVYLQMNSLKPEDTAVYYCARDVWPTKIQLQPGYGRGEYWGQGTQVTVSS | low polyreactivity
5 | QVQLLESGAGLVQAGGSLRLSCAASGYIFYTYAMGWYRQAPGKERELVAAISSNGGSTYYADSVKGRFTISRDHAKNTVYLQMNSLKPEDTAVYYCAARGPYTRYRLSMDYWGQGTQVTVSS | high polyreactivity
6 | QVQLVESGGGFVQAGGSLRLSCAGSGSTFTSYAMGWYRQAPGKERELVASIRSTSGRTYYADSVKGRFTISRDNAKNTVYLQMNSQKPQDTAVYYCAAATYGTWWTYADNPYDYWGQGTQGTVSS | high polyreactivity
7 | QVQLVESGGGLVQAGGSLRLSCAASGSTFYRNAMGWSRPAPGKERELVAAINKSGGRTYYADSVKGRFTISRDNAKNTVYLQMNSLKPEDTAVYYCAAGVSVDLDYWGQGTQVTVSS | high polyreactivity
8 | QVQLVESGGGLVQAGGSLRLRCAASGSTFAYYAMGWYRQAPGKERELVAAITASATNTYYADSVKGRFTISRDHAKNTVYLQMNSLKPEDTAVYYCAADDVDVEHQASWDDYDSWGQGTQVTVSS | low polyreactivity
9 | QVQLVESGGGLVQAGGSLRLSCAASGRTFPYNARGLYRQAPGKERELVASITRRGGSTYYADSVKGRFTISLDNAKNSVYLQMNSVKPEDTAVYYCNAAYPYVRRYKYGYWGQGTLVTVSS | high polyreactivity
10 | QFQLVESGRGLVQAGGSLRLSCAASVRIFRGYAKGWYRQAPGKEREFVAANTKNGGSTYYADSVKGRFTISRDYAKNTVYLQMNSLKPEDTAVYYCAVRAWEPYTGKSDYWGQGTQVTVSS | low polyreactivity
11 | QVQLVESGGGLVQAGGSLRLSCAASGRTFRRYAMGWYRQAPGKERELVAAISGDGSTHYADSVKGRFTISRDNAKNTVYLQMNSLKPEDTAVYYCAADYTDWYYVNYPAAPYRYDYWGQGTQVTVSS | high polyreactivity
12 | QVQLVESGGGLVQAGGSLRLSCAASGLTFYAYAMGWYRQAPGKERELVAAISSRGGRTYYADSVKGRFTISRDNAKNTVYLQMNRLKPEDTAVYYCAARIYRYDTTVVPRYDYWGQGTQVTVSS | high polyreactivity
13 | QVQLVESGGGLVQAGGSLRLSCASSGRTFPGNAMGWYRQAPGKERELVATISSGGTTNYADSVKGRFTISRDNAKNTVYLQMNSLKPDDTAFYYCATDTYHHKADYEYWGQGTQVTLSS | low polyreactivity
14 | QVQQQESGGGLVQAGGSLRLSCAASGTIFQLTVMGRYRQAPGKERELVASIDYGGNTNYADSVKGRFTISRDNAKNTVYLQMHSLKPEDTAVYYCAASSDSWTTHPYWGQGTQVTVSS | low polyreactivity
15 | QVQLVESGGGLVQAGGSLRLSCAASGSIFSYYVMGWYRQAPGKERELVAAISYSGGRTYYADSVKGRFTISRDNAKNTVYLQMNSLKPEDTAVYYCAASRRVGEVSYYYWGQGTQVTVSS | high polyreactivity
16 | QVQLVESGGGLVQAGGSLRISCAASGITLYFYAMGWYRQAPGKERELVAGISGSVGSTHYADSVKGRFSISRDNAKNTVYLQMNSLKPEDTAVYYCAARALTWSRVPRYNYWGQGTQVTVSS | high polyreactivity
17 | QVQLVESGGGVVQAGGSLRISGAASGSIFPFNAMVWYRQAPGKERELVAAIRRSGGSTYYADSVQGRFTISRYNAKNTVDLQMNSLKPEATAVYYCATDPEWPLPAYYYWGQGTQVTVSS | low polyreactivity
18 | QVQLVESGGGLVQAGGSLRLSCAASGITFGANAMGWYRQAPGKERELVADITWSGGDTYYADSVKGRFTISRDNAKNTVYLQMNSLKPEDTAVYYCNALQPGLGSPLGEYDYWGQGTQVTVSS | low polyreactivity
19 | QEQLQESCGGLVLAGGSLRLSCASSGSISAQAYMGWDRQAPGKEREHVAGINYGDNTNYADSVKGRFTISRDNEHRVSADEQPETGRYRGVLLRGFLELFYYYIYWGQGTQVTVSS | high polyreactivity
20 | QVQLVESGGRLVQAGGRLRLSCAASGRTFPIYVMGWYRQAQGKERELVATIDSDGTTNYADSVKGRFTISRDNAKNTVSLQMNSLKPEDTAVYYCAADSGWWEYCEDYWGQGTQVTVSS | low polyreactivity
21 | QVQLVESGGGLVQAGGSLRLSCAASGRTFYTYAMGWYRQAPGKERELVASISRSGSGTFYADSVKGRFTISRDNAKNTVYLQMNSLKPEDTAVYYCNAVSAAKIPFQKYGYWGQGTQVTVSS | high polyreactivity
22 | QVQLVESGGGLVQAGGSLRLSCAASGRIFTRYAMGWYRQAPGKERELVAAINYRGSSTYYADSVKGRFTISRDNAKNTVYLQMNSLKPEDTAVYYCNTYGQTDTYWRYYYWGQGTQVTVSS | high polyreactivity

Row | Sequence | polyreactivity (PSR sort gate)
23 | QVQLVESGVGIGQAGGSLRLTCAASGRTVSKYGKGWYRHAPGKEREMVAAISGRGGSTYYADSVKGRFTISRDHAKNTVYLQMNSLNPEDNAVYYCAQDLSYRPHGHGDGHYDFWGQGTQVTVSS | low polyreactivity
24 | QVQLVESGGGLVQAGGSLRLSCAASGSIFSSYAMGWYRQAPGKERELVAAITSGGSTYYADSVKGRFTISRDNAKNTVYLQLFSLKPEDTAVYYCAARQVRTSKLHMGYWGQGTQVTVSS | low polyreactivity
25 | QVQLVESGGGLVQAGGSLSLSCAASGSIFYGNAMGWYRQEPGKERELVAAITYGTSSTYYADSVKGRFTISRDKAKNTVYLQMNSLKPEDTAVYYCAADAKSHPTTRNYVGSPMDYWGQGTQVTVSS | low polyreactivity
26 | QDQHVESGGGLVQAGGSLRLSCAASGSNFVINAMGWYRQAPGKEREWVAAITSSGGSTYYADSVKGRFTISRDNAKNTVYLQMNSLKPEDTAVYYCAAYVRTAFGRMNYWGQGTLVTVSS | high polyreactivity
27 | QVQLVESGGGLVQAGGSLRLSCAASGSTFRLYAMGWYRQAAGKERELVAAISYSGGSTYYADSVKGRFTISRDTAKNTVYLQMNSLKPEETAVYYCNAVRRHGGYYDYGYWGQGTQVTVSS | high polyreactivity
28 | QVQLVESGGGLVQAGGSLRLSRAASGFTFPAYTMGWYRQAPGKERELVAAITSSGGNTYYADSVKGRFTISRDNAKHTVYLQMNSLKPEDTAVYYCATVSVRWPSNDHVRYDYWGQGTQVTVSS | low polyreactivity
29 | QVQLVESGGGLVQAGGSLRLSCAASGIIFSDYAMGWYRQAPGKERELVAAITGGGSTYYADSVKGRFTISPDNAQNTVYLQMNSLKPEDTSVYYCNTDAWHETPVSGYSWGQCTQVTVSS | low polyreactivity
30 | QVQLVESGGGLVQAGGSLRLSCAASGSIFAGYAMGWYRQAPGKERELVAAISKSAGSTYYADSVKGRFTISRDNAKNTVYLQMNSLKPEDTAVYYCAARTFNTYPRYYYWGQGTQVTVSS | high polyreactivity
31 | QVQLVESGGGLVQAGGSLRLSCAASGSILYINAMGWYRQAPGKERELVAAITYSGGSTYYADSVKGRFTISRDNAKNTVYLQMNSLKPEDTAVYYWAADAVVAGRYDGHDYWGQGTQVTVSS | low polyreactivity
32 | QVQLVESGGGLVQAGGSLRLSCAASGFIFDGYAMGWYRQAPGKERELVAAISSSGGRTHYADSVKGRFTISRDNAKNTVYLQMNSLKPEDTAVYYCAVRFKWQGYNYWGQGTQVTVSS | high polyreactivity
33 | QVQLVESGGGLLQAGGSLRLSSAASGRTFSTNAMGWYRQAPGKERELVAAITSRGGSTYYADSVKGRFTISRDNAKNTVYLQMNSLKPEDTAVYYCAAGWLPKYGYWGQGTQVTVSS | low polyreactivity
34 | QVQLVESGGGLVQAGGSLRLSCAASGFIDAYTMGWYRQAPGKERELVAAITWSGGRTYYADSVKGRFTISRDNAKNTVYLQMNSLKPEDTAVYYCAATVSRGFYSWWYDYWGQGTQVTVSS | low polyreactivity
35 | QVQLVESGGGLVQAGGSLRLSCSASGSIFNYYAMGWYRQPPGKERELVAAISYRTGSTYYADSVKGRFTISRDNSKNTVYLQMNSLKPEDTSVYYCAADTRYGYGYWGQGTQVTVSS | high polyreactivity
36 | QVQLVESGGGLVQAGGSLRLSCAASGTSGYYAMGWYRQAPGKERELVAGISIGGSTNYADSVKGRFTISRDNAKNTVYLQMNSLKPEDTAVYYCAVDGYVAFSPDRNNYWGQGTQVTLSS | low polyreactivity
37 | QVQLVDSGGGLLQAGGILSLSCAASGSIFPYYAMGWYRQAPGKERELVAVITTVGGSTYYADSVKGRFTISRDNAKYTVYLQMNSLKPEDTAVYYCADEEDYIYFYFSMDYWGQGTQVTVSS | low polyreactivity
38 | QVQLVESGGGLVQAGGSLRLSCAASGRTFSWYAMGWYRQAPGKERELVAAITWSGGSTYYADSVKGRFTISRDNAKNTVYLQMNSLKPEDTAVYYCNALRYSNRRYYSTGPHDYWGQGTQVTVSS | high polyreactivity
39 | QVQRVESGGGLVQAGGSLRLSCAASGFIFETYAMGWYRQAPGKERELVAAISWRTGRTYYADSVKGRFTISRDNAKNTVYLQMNSLKPEDTAVYYCNADYGGTSTLKDFDYWGQGTQVTVSS | low polyreactivity
40 | QVQLVESGAGLVQAGGSLRLSCAASGFSFQSYTMGWSRQAPGKERELVAAISRSGGRTYYADSVKGRFTISRDNAKNTVYLQMTSLKPEDTAVYYCAVDYRTRVDYWGQGTQLTVSS | high polyreactivity
41 | QVQLVESGGGLVQAGGSLRLSCAASGSIFFPYVMGWYRQAPGKERELVAAIRRGGGSTYYADSVKGRFTISRDNAKNTVYLQMNSLKPEDTAVYYCAAKGWYVQHFKRGLYNYWGQGTQVTVSS | high polyreactivity
42 | QVQLVESGGGLDQAGGSLRLSCAASGRTFKWNAIGWYRQAHGKERELVASITSGGSTNYADSVKGRFTISRDNAKNTVYLQMNSLKPEDTAVYYCNAEYYLFKRPYSYYYWGQGTQVTVSS | low polyreactivity
43 | QVQLVESGGGLVQAGGSLRLSCAASGRTLSNYAMGWYRQAPGKERELVAAISSSGSTNYADSVKGRFTISRDNAKNTVYLQMNSLKPEDTAVYYCAAESWFLRWYRYDYWGQGTQVTVSS | low polyreactivity
